This is an account of results in patent US10293018B2, “Fusion protein for treating rejection reaction in transplantation” (Immunwork Inc., priority 2015, dated 2019).

Test [1] deals with mTOR/p70S6K signaling pathway. The test is described as follows: Western blot analysis of mTOR/p70S6K signaling pathway in Jurkat T cells. The following applies: 100 nM compound with 10 ng/ml IL2, 24 hours, without changes in total p70S6K, FIG. 20A. The format is cell-based, human. The procedure: To examine the biological activities of these compounds, western blot analysis of mTOR/p70S6K signaling pathway and T-cell proliferation assay were performed with human Jurkat T cells. T-cell viability and proliferation were assessed using alamarBlue® cell viability reagent (Invitrogen).
For the western blot analysis of mTOR/p70S6K signaling pathway, briefly, Jurkat T cell were seeded into 6-cm cell culture dish in RPM11640 medium containing 10% fetal bovine serum.
Insoluble material was collected by centrifugation at 14,000×g for 20 minutes at 4° C. The cell lysate samples were separated on 10% SDS-PAGE gels and transferred to a PVDF membrane (Millipore). The membrane blots were blocked in PBS containing 5% BSA for 1 hour at room temperature, and incubated with primary antibodies, anti-phospho-p70S6K antibody (Cell Signaling Technology, Danvers, USA) and anti-p70S6K antibody (Cell Signaling Technology), overnight at 4° C. […] Then the membranes were washed three times with TBST, and immunoreacted bands were detected with ECL™ western blotting detection reagents (Millipore) and exposed on Fujifilm (Tokyo, Japan). Relative quantification of ECL signals on X-ray films were analyzed by using Image J (NIH, Bethesda, Md., USA).

The next test has as its system scFv specific for CTLA-4. The test is described as follows: Western blot of recombinant CTLA-4 detected with scFv specific for CTLA-4. The format is binding. The following applies: scFv 1 μg/ml; FIG. 14C. The procedure:
Recombinant CTLA-4 protein was analyzed and detected using western blotting. Briefly, 50 μl of the purified CTLA-4 protein was electrophoresed on the 12% SDS-PAGE gel (lane 2) and electroblotted over to a PDVF membrane. The protein (CTLA-4)-IgG1Fc-(scFv α HLA-A1) was used as a positive control (lane 1). After blocking with 5% BSA in TBST at room temperature for 1 hour, the diluted scFv specific for CTLA-4 (1 μg/ml) was added and incubated with the membrane overnight at 4° C. with gentle shaking. The membrane was rinsed and washed 3 times with TBST. The diluted HRP-conjugated protein L (1:5000) was added and incubated with the membrane at room temperature for 1 hour, and the rinse and wash cycle was repeated with TBST for 3 times. The membrane was then incubated with HRP substrate solution for 20 minutes before being exposed to the photographic film.

The target in another test is T1, PD1-IgG1.Fc (Homo sapiens, UniProt Q15116).
T1 construct: made in house; host or cells: Expi293F
T1 sequence (Q15116 with tags, fused parts or gaps): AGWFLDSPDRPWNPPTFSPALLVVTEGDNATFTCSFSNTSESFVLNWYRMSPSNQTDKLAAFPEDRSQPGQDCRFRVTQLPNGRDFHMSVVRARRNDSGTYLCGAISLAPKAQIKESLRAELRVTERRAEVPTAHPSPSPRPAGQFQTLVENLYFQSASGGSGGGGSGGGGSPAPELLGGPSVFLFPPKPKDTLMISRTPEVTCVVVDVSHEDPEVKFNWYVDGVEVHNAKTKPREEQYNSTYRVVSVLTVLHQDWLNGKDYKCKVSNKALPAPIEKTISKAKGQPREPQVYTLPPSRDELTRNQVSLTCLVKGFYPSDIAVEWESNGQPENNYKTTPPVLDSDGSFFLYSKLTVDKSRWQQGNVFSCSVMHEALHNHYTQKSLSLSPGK
The test is described as follows: ELISA of coated recombinant PD-L1 binding PD1-IgG1.Fc. The following applies: PD-L1 coated at 50 μg/ml, PD1-IgG1.Fc at 50 μg/ml; FIG. 14D. The procedure: Binding activity of recombinant PD-L1 protein was assayed with ELISA using a 96-well plate coated with recombinant PD-L1 protein in 50 μg/ml concentration, 100 μl per well. After the excess PD-L1 was washed off and the solid phase blocked, 100 μl per well of PD1-IgG1.Fc at 50 μg/ml was added. The bound PD1-IgG1.Fc was determined by HRP-conjugated goat anti-human IgG.Fc. 50 μl of TMB substrate was added for color development. The reaction was stopped by 50 μl of 1M HCl. Absorbance at 450 nm was measured with a plate reader. Each bar represents the mean OD450 value of duplicate samples.

The target of a further test is T2, human HLA-A2 (Homo sapiens, UniProt P04439).
T2 construct: made in house; host or cells: Expi293F
The test is described as follows: Single colony ELISA of phage-displayed scFvs specific for human HLA-A2. The format is binding. The conditions noted are these: secreted scFv in supernatant; HLA-A2 0.5 μg per well; FIG. 16B. The protocol:
E. coli strain ER2738 infected with single-clonal phages each harboring a selected scFv gene in its phagemid was grown in the mid-log phase in 2YT broth (16 g/l tryptone, 10 g/l yeast extract, 5 g/l NaCl, pH 7.0) with 100 μg/ml ampicillin in deep well at 37° C. with shaking. After the broth reached an OD600 of 1.0, IPTG was added to a final concentration of 1 μg/ml. The plates were incubated at 37° C. overnight under rigorously shaking. Thereafter, the plates were centrifuged at 4,000 g for 15 minutes at 4° C.
For soluble scFv binding test, ELISA was carried out. Briefly, 96-well Maxisorp 96-well plate (Nunc) was coated with human HLA-A2 (0.5 μg/100 μl PBS per well) or two negative control antigens, human heat shock protein 70 (Hsp 70) and RSV-IgG1.Fc fusion protein (prepared by our laboratory), for 18 hours with shaking at 4° C. After being treated with 300 μl of blocking buffer for 1 hour, 100 μl of secreted scFv in the supernatant was mixed with 100 μl of blocking buffer and then added to the coated plate for another 1 hour. Goat anti-E-tag antibody (conjugated with HRP, 1:4000, Cat. No. AB19400, Abcam) was added to the plate for 1 hour. TMB substrate (50 μl per well) was added to the wells and the absorbance at 450 nm was measured after reactions were stopped by adding 1N HCl (50 μl per well).

In test [2] the target is T3, human HLA-A1 (Homo sapiens, UniProt P04439).
T3 construct: made in house; host or cells: Expi293F
The test is described as follows: ELISA of purified scFv of mAb specific for human HLA-A1. The format is binding. The following applies: scFv specific for TNF-α as negative control; FIG. 15C. The protocol: The expression of the constructed gene in Expi293F cells was performed as in preceding Examples. Culture supernatants were harvested and scFv proteins in the media were purified using Protein L affinity chromatography. FIGS. 15A, 15B and 15C show 12% SDS-PAGE, mass spectrometric and ELISA analyses of purified scFv of mAb specific for human HLA-A1. […] The scFv specific for TNF-α was used as a negative control, which was prepared as described in PCT patent application publication No. WO/2016112870.

In test [3] the target is T3, human HLA-A1. The test is described as follows: ELISA of tetrazine-conjugated scFv specific for human HLA-A1. The format is binding. The following applies: unmodified scFv as positive control; FIG. 17B. From the text: The purity of tetrazine-conjugated scFv specific for human HLA-A1 was identified through Coomassie blue staining of 12% SDS-PAGE. FIGS. 17A and 17B show, respectively, the mass spectrometric and ELISA analysis of tetrazine-conjugated scFv specific for human HLA-A1, in which unmodified scFv specific for human HLA-A1 was used as a positive control.

Consider `COC1CC2CCC(C)C(O)(O2)C(=O)C(=O)N2CCCCC2C(=O)OC(C(C)CC2CCC(OC(=O)CN)C(OC)C2)CC(=O)C(C)C=C(C)C(O)C(OC)C(=O)C(C)CC(C)C=CC=CC=C1C` (stereo not shown) [sirolimus-Gly], for which the “phosphorylated level of p70S6K” value in test [1] is reported as “decreased”.

In the case of `COC1CC2CCC(C)C(O)(O2)C(=O)C(=O)N2CCCCC2C(=O)OC(C(C)CC2CCC(OC(=O)CNC(=O)CN)C(OC)C2)CC(=O)C(C)C=C(C)C(O)C(OC)C(=O)C(C)CC(C)C=CC=CC=C1C` (stereo not shown) [sirolimus-diGly], the “phosphorylated level of p70S6K” value in test [1] is given as “decreased”.

“recombinant human CTLA-4: recombinant human CTLA-4, SEQ ID NO: 30, with GGGGSGGGGS linker and terminal cysteine at the C-terminus”: the “binding by the scFv specific for CTLA-4 (western blot)” value in the test with scFv specific for CTLA-4 is on record as “specifically bound”.

“recombinant human PD-L1: recombinant human PD-L1, SEQ ID NO: 31, with GGGGSGGGGS linker and terminal cysteine at the C-terminus”: the “binding to recombinant PD1-IgG1.Fc (ELISA)” value with PD1-IgG1.Fc is listed as “specifically bound”.

B1: 3E10: phage-displayed scFv clone that binds to human HLA-A2, SEQ ID NO: 34 (protein)
scFv: DIQMTQSPSSLSASVGDRVTITCRASQDVFFFVAWYQQKPGKAPKLLIYGPPGLYSGVPSRFSGSGSGTDFTLTISSLQPEDFATYYCQQYFSFPITFGQGTKVEIKRGGGGSIEGRSGGGGSEVQLVESGGGLVQPGGSLRLSCAASGFTISNGGIHWVRQAPGKGLEWVASIWPSGGYTSYADSVKGRFTISADTSKNTAYLQMNSLRAEDTAVYYCARFGVNYHGIMDYWGQGTLVTVSS
modifications: phage-displayed scFv specific for HLA-A2, 3E10
Consider B1, for which the “OD450 of binding to human HLA-A2” value with human HLA-A2 amounted to 1.3.

B2: scFv of mAb specific for human HLA-A1: scFv with VL and VH from monoclonal antibody 4-35-7, SEQ ID NO: 32 (protein)
scFv: DIQMTQSPSTLSASVGDRVTITCRASQSISNWLAWYQQKPGKAPNLLIYKASSLESGVPSRFSGSGSGTEFTLTISSLQPDDFATYYCQQYHDYSVTFGAGTKVEIKRGGGGSGGGGSGGGGSEVQLLESGGGLVQPGGSQRLSCVASGVPFSNYAMNWVRQAPGKGLEWVSSISGGGDRTFYADSVKGRFTISRDNSKNTLYLQMNSLGAGDTAVYYCAKTYYDFWSGYSRHLNSWGQGSLVTVSSGGGGSGGGGSC
modifications: anti-HLA-A1 4-35-7 scFv
For the molecule B2, the “binding to human HLA-A1 (ELISA)” value in the test with human HLA-A1 [2] is given as “bound specifically”.

B3: tetrazine-conjugated scFv specific for human HLA-A1: scFv specific for human HLA-A1 (SEQ ID NO: 32) conjugated at C-terminal cysteine with Mal-PEG4-tetrazine (conjugate)
scFv: DIQMTQSPSTLSASVGDRVTITCRASQSISNWLAWYQQKPGKAPNLLIYKASSLESGVPSRFSGSGSGTEFTLTISSLQPDDFATYYCQQYHDYSVTFGAGTKVEIKRGGGGSGGGGSGGGGSEVQLLESGGGLVQPGGSQRLSCVASGVPFSNYAMNWVRQAPGKGLEWVSSISGGGDRTFYADSVKGRFTISRDNSKNTLYLQMNSLGAGDTAVYYCAKTYYDFWSGYSRHLNSWGQGSLVTVSSGGGGSGGGGSC
modifications: Mal-PEG4-tetrazine at C-terminal cysteine; anti-HLA-A1 4-35-7 scFv
In the case of B3, the “binding to recombinant HLA-A1 (ELISA)” value with human HLA-A1 [3] was “bound to recombinant HLA-A1”.
